The results in this text go back to paper doi:10.1101/2024.05.23.595592.

The assay has as its target TREM2 R77D, biotinylated (human) (UniProt Q9NZC2). The assay is described as follows: BLI. On the technique in general: Biolayer interferometry detects binding as a change in optical thickness at a sensor tip.

Chain of TREM2 R77D, biotinylated (human) (Q9NZC2 19-230 R77D): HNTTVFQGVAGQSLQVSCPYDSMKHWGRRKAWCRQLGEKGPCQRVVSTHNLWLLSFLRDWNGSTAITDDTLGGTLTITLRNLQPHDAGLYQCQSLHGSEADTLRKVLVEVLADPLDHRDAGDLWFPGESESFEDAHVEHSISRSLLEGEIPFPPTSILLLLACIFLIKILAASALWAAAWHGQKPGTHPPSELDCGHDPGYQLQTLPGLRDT

B1: Human IL-34 (19-241) (ligand)
chain: LGNEPLEMWPLTQNEECTVTGFLRDKLQYRSRLQYMKHYFPINYKISVPYEGVFRIANVTRLQRAQVSERELRYLWVLVSLSATESVQDVLLEGHPSWKYLQEVETLLLNVQQGLTDVEVSPKVESVLSLLNAPGPNLKLVRPKALLDNCFRVMELLYCSCCKQSSVLNWQDCEVPSPQSCSPEPSLQYAATQLYPPPPWSPSSPPHSTGSVRPVRAQGEGLL
B1: the Kd (usually the equilibrium constant for the complex coming apart) is 114 nM.
